In general, Tm refers to the temperature at which the thermal transition is half complete.

B1: Lysozyme C, P61626 (parent)
chain: MKALIVLGLVLLSVTVQGKVFERCELARTLKRLGMDGYRGISLANWMCLAKWESGYNTRATNYNAGDRSTDYGIFQINSRYWCNDGKTPGAVNACHLSCSALLQDNIADAVACAKRVVRDPQGIRAWVAWRNRCQNRDVRQYVQGCGV

The first series covers variants of B1. To be noted: Homo sapiens; pH 2.67; Thermal; DSC; Gly-HCl 0.05 M; structure 1LZ1; whole UniProt chain shown.
On to MKALIVLGLVLLSVTVQGKVFERCELARTLKRLGMDGYRGISLANWMCLAKWESGYNTRATNYNAGDRSTDYGIFQINSRYWCNDGKTPGAYNACHLSCSALLQDNIADAVACAKRVVRDPQGIRAWVAWRNRCQNRDVRQYVQGCGV [V92Y], for which the Tm is 63.3 °C, the “unfolding enthalpy (calorimetric)” value was determined as 104 kcal/mol and the “unfolding enthalpy (van 't Hoff)” value is 104 kcal/mol.

The series is the same for the next values; noted with them: Homo sapiens; pH 2.7; 64.9 °C; Thermal; DSC; Gly-HCl 0.05 M; structure 1LZ1; whole UniProt chain shown.
As to MKALIVLGLVLLSVTVQGKVFERCELARTLKRLGMDGYRGISLANWMCLAKWESGYNTRATNYNAGDRSTDYGIFQINSRYWCNDGKTPGAYNACHLSCSALLQDNIADAVACAKRVVRDPQGIRAWVAWRNRCQNRDVRQYVQGCGV [V92Y], the “ddG of mutation (higher = less stable)” value worked out at 0.24 kcal/mol, the “heat capacity change of unfolding” value was found to be 1.65 kcal/mol/K and the “unfolding enthalpy (calorimetric)” value worked out at 107 kcal/mol.

With MKALIVLGLVLLSVTVQGKVFERCELARTLKRLGMDGYRGISLANWMCLAKWESGYNTRATNYNAGDRSTDYGIFQINSRYWCNDGKTPGARNACHLSCSALLQDNIADAVACAKRVVRDPQGIRAWVAWRNRCQNRDVRQYVQGCGV [V92R], the “ddG of mutation (higher = less stable)” value came out at 0.07 kcal/mol, the “heat capacity change of unfolding” value came out at 1.67 kcal/mol/K and the “unfolding enthalpy (calorimetric)” value stood at 104 kcal/mol.

Regarding MKALIVLGLVLLSVTVQGKVFERCELARTLKRLGMDGYRGISLANWMCLAKWESGYNTRATNYNAGDRSTDYGIFQINSRYWCNDGKTPGANNACHLSCSALLQDNIADAVACAKRVVRDPQGIRAWVAWRNRCQNRDVRQYVQGCGV [V92N], the “ddG of mutation (higher = less stable)” value stood at 0.33 kcal/mol, the “heat capacity change of unfolding” value was determined as 1.1 kcal/mol/K and the “unfolding enthalpy (calorimetric)” value turned out to be 115 kcal/mol.

Still in this series, the particulars now being: Homo sapiens; pH 2.7; Thermal; DSC; Gly-HCl 0.05 M; structure 1LZ1; whole UniProt chain shown.
MKALIVLGLVLLSVTVQGKVFERCELARTLKRLGMDGYRGISLANWMCLAKWESGYNTRATNYNAGDRSTDYGIFQINSRYWCNDGKTPGAYNACHLSCSALLQDNIADAVACAKRVVRDPQGIRAWVAWRNRCQNRDVRQYVQGCGV [V92Y]: the Tm was determined as 64 °C and the “change of melting temperature, mutant - wild type (higher = more stable)” value (“change of melting temperature, mutant” for short) is -0.9 °C.

On to MKALIVLGLVLLSVTVQGKVFERCELARTLKRLGMDGYRGISLANWMCLAKWESGYNTRATNYNAGDRSTDYGIFQINSRYWCNDGKTPGARNACHLSCSALLQDNIADAVACAKRVVRDPQGIRAWVAWRNRCQNRDVRQYVQGCGV [V92R], for which the Tm worked out at 64.6 °C and the “change of melting temperature, mutant” value is -0.3 °C.

As for MKALIVLGLVLLSVTVQGKVFERCELARTLKRLGMDGYRGISLANWMCLAKWESGYNTRATNYNAGDRSTDYGIFQINSRYWCNDGKTPGANNACHLSCSALLQDNIADAVACAKRVVRDPQGIRAWVAWRNRCQNRDVRQYVQGCGV [V92N], the Tm amounted to 63.9 °C and the “change of melting temperature, mutant” value was -1 °C.

The series is the same for the next values; noted with them: Homo sapiens; pH 3.02; Thermal; DSC; Gly-HCl 0.05 M; structure 1LZ1; whole UniProt chain shown.
MKALIVLGLVLLSVTVQGKVFERCELARTLKRLGMDGYRGISLANWMCLAKWESGYNTRATNYNAGDRSTDYGIFQINSRYWCNDGKTPGAYNACHLSCSALLQDNIADAVACAKRVVRDPQGIRAWVAWRNRCQNRDVRQYVQGCGV [V92Y]: the midpoint of thermal melting (Tm) worked out at 70 °C, the “unfolding enthalpy (calorimetric)” value is 115 kcal/mol and the “unfolding enthalpy (van 't Hoff)” value was 116 kcal/mol.

Staying with this series, now noted: Homo sapiens; pH 3.21; Thermal; DSC; Gly-HCl 0.05 M; structure 1LZ1; whole UniProt chain shown.
With MKALIVLGLVLLSVTVQGKVFERCELARTLKRLGMDGYRGISLANWMCLAKWESGYNTRATNYNAGDRSTDYGIFQINSRYWCNDGKTPGAYNACHLSCSALLQDNIADAVACAKRVVRDPQGIRAWVAWRNRCQNRDVRQYVQGCGV [V92Y], the Tm came out at 73.3 °C, the “unfolding enthalpy (calorimetric)” value came out at 120 kcal/mol and the “unfolding enthalpy (van 't Hoff)” value was 120 kcal/mol.

The series is the same for the next values; noted with them: Homo sapiens; pH 3.26; Thermal; DSC; Gly-HCl 0.05 M; structure 1LZ1; whole UniProt chain shown.
In the case of MKALIVLGLVLLSVTVQGKVFERCELARTLKRLGMDGYRGISLANWMCLAKWESGYNTRATNYNAGDRSTDYGIFQINSRYWCNDGKTPGAYNACHLSCSALLQDNIADAVACAKRVVRDPQGIRAWVAWRNRCQNRDVRQYVQGCGV [V92Y], the Tm is 74.1 °C, the “unfolding enthalpy (calorimetric)” value is 122 kcal/mol and the “unfolding enthalpy (van 't Hoff)” value is 123 kcal/mol.

The series is the same for the next values; noted with them: Homo sapiens; pH 2.66; Thermal; DSC; Gly-HCl 0.05 M; structure 1LZ1; whole UniProt chain shown.
With MKALIVLGLVLLSVTVQGKVFERCELARTLKRLGMDGYRGISLANWMCLAKWESGYNTRATNYNAGDRSTDYGIFQINSRYWCNDGKTPGARNACHLSCSALLQDNIADAVACAKRVVRDPQGIRAWVAWRNRCQNRDVRQYVQGCGV [V92R], the Tm is 63.8 °C, the “unfolding enthalpy (calorimetric)” value is 102 kcal/mol and the “unfolding enthalpy (van 't Hoff)” value was determined as 100 kcal/mol.

Still in this series, the particulars now being: Homo sapiens; pH 2.85; Thermal; DSC; Gly-HCl 0.05 M; structure 1LZ1; whole UniProt chain shown.
Take MKALIVLGLVLLSVTVQGKVFERCELARTLKRLGMDGYRGISLANWMCLAKWESGYNTRATNYNAGDRSTDYGIFQINSRYWCNDGKTPGARNACHLSCSALLQDNIADAVACAKRVVRDPQGIRAWVAWRNRCQNRDVRQYVQGCGV [V92R]: the Tm amounted to 67.3 °C, the “unfolding enthalpy (calorimetric)” value was 108 kcal/mol and the “unfolding enthalpy (van 't Hoff)” value was 105 kcal/mol.

The same series, now with this note: Homo sapiens; pH 3; Thermal; DSC; Gly-HCl 0.05 M; structure 1LZ1; whole UniProt chain shown.
Regarding MKALIVLGLVLLSVTVQGKVFERCELARTLKRLGMDGYRGISLANWMCLAKWESGYNTRATNYNAGDRSTDYGIFQINSRYWCNDGKTPGARNACHLSCSALLQDNIADAVACAKRVVRDPQGIRAWVAWRNRCQNRDVRQYVQGCGV [V92R], the Tm is 69.5 °C, the “unfolding enthalpy (calorimetric)” value was 112 kcal/mol and the “unfolding enthalpy (van 't Hoff)” value is 109 kcal/mol.

Staying with this series, now noted: Homo sapiens; pH 3.18; Thermal; DSC; Gly-HCl 0.05 M; structure 1LZ1; whole UniProt chain shown.
For MKALIVLGLVLLSVTVQGKVFERCELARTLKRLGMDGYRGISLANWMCLAKWESGYNTRATNYNAGDRSTDYGIFQINSRYWCNDGKTPGARNACHLSCSALLQDNIADAVACAKRVVRDPQGIRAWVAWRNRCQNRDVRQYVQGCGV [V92R], the melting temperature (Tm) was 72.8 °C, the “unfolding enthalpy (calorimetric)” value was 117 kcal/mol and the “unfolding enthalpy (van 't Hoff)” value came out at 114 kcal/mol.

Staying with this series, now noted: Homo sapiens; pH 3.22; Thermal; DSC; Gly-HCl 0.05 M; structure 1LZ1; whole UniProt chain shown.
Regarding MKALIVLGLVLLSVTVQGKVFERCELARTLKRLGMDGYRGISLANWMCLAKWESGYNTRATNYNAGDRSTDYGIFQINSRYWCNDGKTPGARNACHLSCSALLQDNIADAVACAKRVVRDPQGIRAWVAWRNRCQNRDVRQYVQGCGV [V92R], the Tm worked out at 73.2 °C, the “unfolding enthalpy (calorimetric)” value is 118 kcal/mol and the “unfolding enthalpy (van 't Hoff)” value stood at 116 kcal/mol.

The series is the same for the next values; noted with them: Homo sapiens; pH 2.65; Thermal; DSC; Gly-HCl 0.05 M; structure 1LZ1; whole UniProt chain shown.
Consider MKALIVLGLVLLSVTVQGKVFERCELARTLKRLGMDGYRGISLANWMCLAKWESGYNTRATNYNAGDRSTDYGIFQINSRYWCNDGKTPGANNACHLSCSALLQDNIADAVACAKRVVRDPQGIRAWVAWRNRCQNRDVRQYVQGCGV [V92N], for which the Tm came to 63 °C, the “unfolding enthalpy (calorimetric)” value was determined as 110 kcal/mol and the “unfolding enthalpy (van 't Hoff)” value worked out at 114 kcal/mol.

Still in this series, the particulars now being: Homo sapiens; pH 2.84; Thermal; DSC; Gly-HCl 0.05 M; structure 1LZ1; whole UniProt chain shown.
For the variant MKALIVLGLVLLSVTVQGKVFERCELARTLKRLGMDGYRGISLANWMCLAKWESGYNTRATNYNAGDRSTDYGIFQINSRYWCNDGKTPGANNACHLSCSALLQDNIADAVACAKRVVRDPQGIRAWVAWRNRCQNRDVRQYVQGCGV [V92N], the Tm amounted to 66.2 °C, the “unfolding enthalpy (calorimetric)” value was determined as 114 kcal/mol and the “unfolding enthalpy (van 't Hoff)” value came out at 116 kcal/mol.

These data come from FireProtDB (doi:10.1074/jbc.m110728200).
